± gives the standard deviation.
Experiment: protein stability index of a GFP-peptide fusion (GPS, HEK-293T) (PSI 1-6); higher = more stable
[1] = treatment: DMSO, c terminus: a fixed tail appended
[2] = treatment: MLN4924 1 uM, 8 h, c terminus: a fixed tail appended
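Note: 24-mer peptide tiles fused after GFP, lentivirally expressed, FACS-sorted into six equal bins by GFP/DsRed ratio, decoded by Illumina sequencing, PSI is the read-weighted mean bin number.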

| Sequence | protein stability index [1] | protein stability index [2] | protein stability index (treatment: DMSO, c terminus: native) | protein stability index (treatment: MLN4924 1 uM, 8 h, c terminus: native) |
| --- | --- | --- | --- | --- |
| DAFPVHRVMMASASDYFKAMFTGG [KLHL13] | 2.21 ± 0.38 | 2.26 ± 0.23 | – | – |
| ALSTERELFAWGRGDSGRLGLGTR [NEK8] | 3.56 ± 0.17 | 3.46 ± 0.42 | – | – |
| KACSLLDVAVHMPCLGHTFNAGIQ [ZBED1] | 2.19 ± 0.5 | 2.11 ± 0.36 | – | – |
| ILAQQPDRLRDEELAELEDALRNL [TRADD] | 5.29 ± 0.22 | 4.94 ± 0.17 | – | – |
| HILKKYYGNGMRKSPEMPVILEVS [RTP4] | 1.99 ± 0.51 | 2.2 ± 0.37 | – | – |
| AFQHTPTSITLTASRVSKVNDKRR [KMT2E] | 3.74 ± 0.27 | 4.11 ± 0.47 | – | – |
| FTYDPWIGKLLYLEDFFVMSDYRG [SAT1] | 2.88 ± 0.51 | 2.79 ± 0.76 | – | – |
| DVVRSLLRRGASVNRTTRTNSTPL [FEM1A] | 2.75 ± 0.29 | 2.65 ± 0.27 | – | – |
| LVLKIMSGTFAPISDRYSPELRQL [NEK8] | 2.9 ± 0.6 | 2.69 ± 0.5 | – | – |
| GETYCEEHGEKIYFFCENDAEFLC [TRIM15] | 3.22 ± 0.26 | 3.33 ± 0.44 | – | – |
| GKAFSQNSGLINHQRIHTGEKPYE [ZNF24] | 3.86 ± 0.19 | 4.33 ± 0.42 | – | – |
| TKKGDLQWNAGEKKLTGGANWQPK [SNAP91] | 4.07 ± 0.13 | 4.26 ± 0.23 | – | – |
| AIWDDTDSMYGECRTYIIHYYLMD [EFHC1] | 2.83 ± 0.52 | 2.67 ± 0.64 | – | – |
| GVQKMNSKTVTSTMLGVFREDPKT [GCH1] | 4.43 ± 0.45 | 4.05 ± 0.33 | – | – |
| LRFLLDQVQLGLRCCGAASYQDWQ [TSPAN10] | 3.05 ± 0.49 | 3.22 ± 0.49 | – | – |
| VEAKSWTASSSYGKGEGPIWLDNL [LOXL2] | 2.42 ± 0.31 | 2.61 ± 0.74 | – | – |
| YEEGMYADWWQEPDAKGDEAEAEP [P3H4] | 5.49 ± 0.17 | 5.37 ± 0.22 | – | – |
| AFSHKSMRDRHVNMHLNLRPFDCP [ZBTB22] | 2.4 ± 0.15 | 2.47 ± 0.19 | – | – |
| RDLLGALKHWRRAMELRHQGGEYL [FEM1A] | 2.46 ± 0.2 | 2.5 ± 0.45 | – | – |
| LYVSLHRYDHGTFFPMGDEGASSQ [HDAC6] | 2.17 ± 0.51 | 2.31 ± 0.28 | – | – |
| TELPELLKLYYRRLFPYSQYYRWL [PRIM1] | 2.93 ± 0.79 | 2.47 ± 0.67 | – | – |
| KMGSYYINRTFFFDVHPPLGKMLI [POMT2] | 2.95 ± 0.75 | 3 ± 0.46 | – | – |
| APAVEVAPAGASYNPSFEDHQTLL [NOP53] | 4.84 ± 0.12 | 5.14 ± 0.25 | – | – |

| Sequence | protein stability index [1] | protein stability index [2] | protein stability index (treatment: DMSO, c terminus: native) | protein stability index (treatment: MLN4924 1 uM, 8 h, c terminus: native) |
| --- | --- | --- | --- | --- |
| NDDYYEESYFTTRTYGEPESAGPS [EMD] | 4.84 ± 0.17 | 4.72 ± 0.17 | – | – |
| FLPEKKDTGVFAVVNSHSLSLLGK [SLC22A15] | 2.57 ± 0.39 | 2.83 ± 0.52 | – | – |
| RCVSFQARFAEKEELMLVHSLEYI [HDAC6] | – | 2.19 ± 0.3 | – | – |
| QGLAEKSPLQTIGEEQTQNPYTEL [WDR41] | 5.3 ± 0.14 | 5.29 ± 0.13 | – | – |
| VPSAVRCLQKRGSATSSSNTSLT [FSD1] | – | – | 4.34 ± 0.13 | 4.43 ± 0.082 |
| EEGESLLCLACSAGYYELAQVLLA [ANKRD17] | 2.17 ± 0.4 | 2.39 ± 0.25 | – | – |
| SGEVLNGAAVVRPPGHHAEQDAAC [HDAC6] | 5.32 ± 0.31 | 5.13 ± 0.14 | – | – |
| QRVEKDMKKAKEQLKIRKSNQIPT [FUNDC2] | 4.58 ± 0.32 | 4.56 ± 0.26 | – | – |
| HLELTRKLQDLIKDVLRYGEEQLK [FCHO1] | 2.95 ± 0.52 | 2.71 ± 0.69 | – | – |
| IYAFAGMTNHQLSTTEWNDETLYQ [CHIT1] | 2.36 ± 0.26 | 2.61 ± 0.22 | – | – |
| MKRHSSRDAAGKPQRPRSAPRTSS [FCHO1] | 4.82 ± 0.28 | 4.92 ± 0.34 | – | – |
| SLHPESGQENDATSPHFSTRHEGS [CD69] | 5.4 ± 0.23 | 5.33 ± 0.14 | – | – |
| VFQTEQKNLFRLEMDMVVFRPEMK [N4BP2L1] | 2.02 ± 0.26 | 2.16 ± 0.092 | – | – |
| TTLKGHEGSVACLWWDPIQRLLFS [WDFY1] | 2.08 ± 0.27 | 2.35 ± 0.39 | – | – |
| ELKPEDKDPRDPEESKEPKEEKQR [GNAS] | 5.22 ± 0.48 | 5.7 ± 0.3 | – | – |
| EEEPSHVTGREGFPTDAPYPTTLG [ZNF8] | 5.17 ± 0.14 | 5.17 ± 0.14 | – | – |
| SRIQEWYEFQIPYICPDYQSYFKT [KRT36] | 2.29 ± 0.31 | 2.17 ± 0.36 | – | – |
| DKAMKKDGLVGMAIVGGMALGVAG [FIS1] | 2.89 ± 0.16 | 2.67 ± 0.12 | – | – |
| PSPQLDTQQEIKLCQKSNDISIHH [WDR41] | 4.41 ± 0.51 | 4.49 ± 0.05 | – | – |
| AFQITGVWDASRAPRGTPDPGLGE [PLEKHN1] | 3.85 ± 0.31 | 3.78 ± 0.21 | – | – |
| LLRDHIPRGKEELESLGGGKTPPG [MOG] | 4.89 ± 0.18 | 4.81 ± 0.37 | – | – |
| EASERFAAGYIQCMHEVHTFVSTC [HES6] | 2.21 ± 0.23 | 2 ± 0.36 | – | – |

Reference: the supplement of paper PMC10567573
